Source: paper doi:10.1101/2024.03.17.585388

Target: NTD_GS_CTD (NP NTD and CTD joined by a 14 residue artificial linker, no tails) (SARS-CoV-2)
Test: […]

NTD_GS_CTD (NP NTD and CTD joined by a 14 residue artificial linker, no tails) (domain or fragment)
stoichiometry N: 2
